Experimental data as given in paper PMC4428071, “Structural basis for epitope masking and strain specificity of a conserved epitope in an intrinsically disordered malaria vaccine candidate” (Scientific Reports, 2015).

biological target: mouse monoclonal antibody 6D8 (mouse); test: SPR
Sequence (heavy, as listed by the source, chain 1 of 2): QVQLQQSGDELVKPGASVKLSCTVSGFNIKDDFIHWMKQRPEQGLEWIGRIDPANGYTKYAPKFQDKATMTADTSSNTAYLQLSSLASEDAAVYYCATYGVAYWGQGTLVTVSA
Sequence (light, as listed by the source, chain 2 of 2): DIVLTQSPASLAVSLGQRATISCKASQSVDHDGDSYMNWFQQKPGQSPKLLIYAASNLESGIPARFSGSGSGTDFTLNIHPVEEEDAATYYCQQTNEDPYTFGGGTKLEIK

| Binder | Kd [nM] |
| --- | --- |
| Ac-NAYNMSIRRS-NH2 [MSP2_(14-23)] | 16 |
| Ac-NNAYNMSIRR-NH2 [MSP2_(13-22)] | 14 |
| Ac-AYNMSIRR-NH2 [MSP2_(15-22)] | 87 |

Continued, values first:

| Kd [nM] | Binder |
| --- | --- |
| 6 | Ac-NAYNMSIRR-NH2 [MSP2_(14-22)] |
| 6 | Ac-FINNAYNMSIRRS-NH2 [MSP2_(11-23)] |
| 34 | Ac-AYNMSIRRS-NH2 [MSP2_(15-23)] |

biological target: 6D8 scFv (mouse); test: ITC; Microcal ITC-200; MSP2 or peptide titrated into 6D8 scFv or 6D8 IgG
Sequence (heavy, as listed by the source, chain 1 of 2): as the sequence (heavy, as listed by the source, chain 1 of 2) above
Sequence (light, as listed by the source, chain 2 of 2): as the sequence (light, as listed by the source, chain 2 of 2) above

| Kd [nM] | Binder |
| --- | --- |
| < 5 | Ac-NAYNMSIRR-NH2 [MSP2_(14-22)] |
